This test deals with commercial recombinant neutrophil elastase (NE) (UniProt P08246). Description: cell-based or functional assay.
Chain of UniProt P08246 (P08246 30-247 limits assumed): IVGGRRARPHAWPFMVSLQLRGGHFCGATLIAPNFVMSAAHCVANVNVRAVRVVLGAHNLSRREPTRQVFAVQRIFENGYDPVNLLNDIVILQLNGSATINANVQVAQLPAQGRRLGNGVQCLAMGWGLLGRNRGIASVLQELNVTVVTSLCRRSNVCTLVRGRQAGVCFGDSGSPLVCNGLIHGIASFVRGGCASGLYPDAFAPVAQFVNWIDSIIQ

For “wild type recombinant human alpha-1-antitrypsin (WT-rhAAT) (from UniProt P01009 25-418)”, the reduction of NE activity (elastase inhibitory activity, chromogenic substrate) at 0.65 µM WT-rhAAT is 75%.

The record behind these values is patent US20230068487A1.
